Here are results for one substance from patent publication US20040175816.

This data set addresses T1, OkrAI restriction endonuclease (Oceanospirillum kriegii) (UniProt E2JKI3).
T1 sequence: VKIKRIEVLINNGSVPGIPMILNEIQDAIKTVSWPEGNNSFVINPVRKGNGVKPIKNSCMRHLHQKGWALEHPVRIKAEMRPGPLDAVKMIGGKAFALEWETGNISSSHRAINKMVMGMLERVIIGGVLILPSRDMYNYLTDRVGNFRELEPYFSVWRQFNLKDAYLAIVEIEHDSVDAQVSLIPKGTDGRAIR
The data set can be described thus: cleavage_in_vitro. As to conditions: approximate yield, assayed in cell extract; isoschizomer of BamHI.

Substance lambda phage DNA returned an activity (units per gram wet cells) of 5e+06.
